US20260015403A1 (LENTIGEN TECHNOLOGY, published 2026)

T1: BCMA on BCMA-positive multiple myeloma tumor lines RPMI-8226 and MM1.S (human, UniProt Q02223 1-184)
T1 sequence (looked up): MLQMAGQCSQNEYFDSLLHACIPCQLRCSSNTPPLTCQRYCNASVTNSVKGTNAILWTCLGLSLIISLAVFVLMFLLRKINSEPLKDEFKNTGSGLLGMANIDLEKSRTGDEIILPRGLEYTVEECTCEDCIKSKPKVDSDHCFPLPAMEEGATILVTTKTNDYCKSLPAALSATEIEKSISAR

T2: recombinant human BCMA (ectodomain)-Fc (human, UniProt Q02223 1-54)
T2 construct: extracellular domain; also called BCMA-Fc; BCMA-Fc peptide; not shown: Fc part
T2 sequence (looked up): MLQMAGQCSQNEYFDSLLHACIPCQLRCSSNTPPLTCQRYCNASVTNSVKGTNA


Assays:
[1] = target: T1, BCMA on BCMA-positive multiple myeloma …; test: cell-based or functional assay
[2] = target: T2, recombinant human BCMA (ectodomain)-Fc; test: flow cytometry of transduced T cells; staining with recombinant human BCMA Fc chimera then anti-Fc-Alexa Fluor 647 (method in paragraph 320)
Protocol: To assess the cell surface expression of BCMA CARs, 0.5-1e6 CAR T-cells were resuspended in FACs buffer (Miltenyi Biotec's autoMACS Rinsing Solution+MACS BSA Stock Solution) and incubated with 0.5 ug of recombinant human BCMA Fc Chimera Protein (RNDsystems) for 20 mins at 4° C. Cells were washed twice and re-suspended in FACs buffer and incubated for 20 mins at 4° C. with anti-Fc-Alexa Fluor 647 at 1:200 dilution. Cells were again washed twice and resuspended in FACs buffer and incubated for 20 mins at 4° C. with anti-CD4-Vioblue or anti-CD8-Viogreen (Miltenyi Biotec) at 1:50 dilution and 7AAD at 1:20 dilution. Cells were subsequently washed and analyzed using the MACSQuant® Analyzer 10 flow cytometer (Miltenyi Biotec).

Binder | tumor lysis of RPMI-8226-luc, luciferase-based killing assay, E:T 5 [1] [%] | binding result [2]
CAR D0086 (Ef1a-BCMA sequence 37 CD8 BBz) (other) EVQLVESGGGLVKPGGSLRLSCAASGFTFSSYGMHWVRQAPGKGLEWVAFIRYDGSNKYYADSVKGRFTISRDNSKNTLYLQMNSLRAEDTAVYYCAKDWEYSGYDAHPGWGQGTLVTVSSGGGGSGGGGSGGGGSDIQLTQSPSSLSASVGDRVTITCRASQGISSALAWYQQKPGKAPKLLIYDASSLESGVPSRFSGSGSGTEFTLTISSLQPEDFATYFCQQTYSPPITFGQGTRLEIKRAAATTTPAPRPPTPAPTIASQPLSLRPEACRPAAGGAVHTRGLDFACDIYIWAPLAGTCGVLLLSLVITLYCKRGRKKLLYIFKQPFMRPVQTTQEEDGCSCRFPEEEEGGCELRVKFSRSADAPAYQQGQNQLYNELNLGRREEYDVLDKRRGRDPEMGGKPRRKNPQEGLYNELQKDKMAEAYSEIGMKGERRRGKGHDGLYQGLSTATKDTYDALHMQALPPR | > 40 | –
CAR D0153 (BCMA 4-1c CD8 BBz) (other, Chimeric antigen receptor on transduced human primary T cells; also called D153; CAR D153) EVQLVETGGGVVQPGGSLRLSCAASGFTFSSYGMHWVRQAPGKGLEWVAFIRYDGSNKYYADSVKGRFTISRDNSKNTLYLQMNSLRAEDTAVYYCAKDWDTYYYDSSGYDRAWGQGTLVTVSSGGGGSGGGGSGGGGSDIQMTQSPSSLSASVGDRVTITCQASQDINNYLNWYQQKPGKAPKLLIYAASSLQSGVSSRFSGSGSGTEFTLTISSLQPEDFATYFCQQTYSPPITFGQGTRLEIKRAAATTTPAPRPPTPAPTIASQPLSLRPEACRPAAGGAVHTRGLDFACDIYIWAPLAGTCGVLLLSLVITLYCKRGRKKLLYIFKQPFMRPVQTTQEEDGCSCRFPEEEEGGCELRVKFSRSADAPAYQQGQNQLYNELNLGRREEYDVLDKRRGRDPEMGGKPRRKNPQEGLYNELQKDKMAEAYSEIGMKGERRRGKGHDGLYQGLSTATKDTYDALHMQALPPR | – | binds
BCMA CAR construct with ScFv sequence 3 (MTB-3) (other, not shown: large carriers) EVQLVESGGGVVQPGGSLRLSCAASGFTFSSYGMHWVRQAPGKGLEWVAFIRYDGSNKYYADSVKGRFTISRDNSKNTLYLQMNSLRAEDTAVYYCAKDDYGGNSEGDYWGQGTLVTVSSGGGGSGGGGSGGGGSEIVLTQSPATLSVSLGERATLSCRASQSVSNSLAWYQQKPGQAPRLLIYDASTRATGIPARFSGSGSGTEFTLTISSLQPEDFATYFCQQTYSPPITFGQGTRLEIKR | > 40 | –
CAR D0100 (Ef1a-BCMA sequence 4-45 CD8 BBz) (other) EVQLVQSGAEVKKPGASVKVSCKASGYTSTSYYMHWVRQAPGQGLEWMGIINPSGGSTSYAQKFQGRVTMTRDTSTSTVYMELSSLRSEDTAVYYCARDLGDGAFDIWGQGTMVTVSSGGGGSGGGGSGGGGSDIQMTQSLSSLSASVGDRVTIACRASQTISRYLNWYQQKPGKAPKLLIYAASSLQSGVSSRFSGSGSGTEFTLTISSLQPEDFATYFCQQTYSPPITFGQGTRLEIKRAAATTTPAPRPPTPAPTIASQPLSLRPEACRPAAGGAVHTRGLDFACDIYIWAPLAGTCGVLLLSLVITLYCKRGRKKLLYIFKQPFMRPVQTTQEEDGCSCRFPEEEEGGCELRVKFSRSADAPAYQQGQNQLYNELNLGRREEYDVLDKRRGRDPEMGGKPRRKNPQEGLYNELQKDKMAEAYSEIGMKGERRRGKGHDGLYQGLSTATKDTYDALHMQALPPR | > 40 | –
BCMA CAR construct with ScFv sequence 39 (MTB-39) (other, not shown: large carriers) EVQLVESGGGVVQPGGSLRLSCAASGFTFSGYGMHWVRQAPGKGLEWVAFIRYDGSNKYYADSVKGRFTISRDNSKNTLYLQMNSLRAEDTAVYYCARDGARNDYWGQGTLVTVSSGGGGSGGGGSGGGGSNFMLTQPHSVSESPGKTVTISCTRSSGSIASNYVQWYQQRPGSAPTTVIYEDNQRPSGVPDRFSGSIDSSSNSASLTISGLKTEDEADYYCQTYDDNNHVIFGGGTQLTVLG | > 40 | –
BCMA CAR construct with ScFv sequence 49 (MTB-49) (other, not shown: large carriers) EVQLVESGGGVVQPGRSLRLSCAASGFTFSSYGMHWVRQAPGKGLEWVAFIRYDGSNKYYADSVKGRFTISRDNSKNTLYLQMNSLRAEDTAVYYCVSDDYGGNSGTSYWGQGTLVTVSSGGGGSGGGGSGGGGSDIQMTQSPSSLSASVGDRVTITCQASQDISNYLNWYQQKPGKAPKLLIYDASNLETGVPSRFSGSGSGTDFTLTISSLQPEDFATYYCQQSYSTPVTFGGGTKLTVLG | > 40 | –
BCMA CAR construct with ScFv sequence 14 (MTB-14) (other, not shown: large carriers) EVQLVESGGGVVQPGRSLRLSCAASGFTFSSYGMHWVRQAPGKGLEWVAFIRYDGSNKYYADSVKGRFTISRDNSKNTLYLQMNSLRAEDTAVYYCVSDDYGGNSGTSYWGQGTLVTVSSGGGGSGGGGSGGGGSDIQMTQSPSSLSASVGDRVTITCQASQDISNYLNWYQQKPGKAPKLLIYDASNLETGVPSRFSGSGSGTDFTLTISSLQPEDFATYYCQQSYSTPVTFGGGTKLTVLG | > 40 | –
BCMA CAR construct with ScFv sequence 28 (MTB-28) (other, not shown: large carriers) QVQLVESGGGVVQPGGSLRLSCAASGFTFSSYGMHWVRQAPGKGLEWVAFIRYDGSNKYYADSVKGRFTISRDNSKNTLYLQMNSLRAEDTAVYYCARDSYSSSGDPRAFDPWGQGTLVTVSSGGGGSGGGGSGGGGSNFMLTQPHSVSESPGKTVTISCTGSSGSIASNYVQWYQQRPGSAPSTVIFEDNQRPSGVPGRFSGSVDRSSNSASLTISGLKTEDEADYYCQSYDSNNRGLFGGGTKVTVLG | > 40 | –
CAR D0099 (Ef1a-BCMA sequence 4-12 CD8 BBz) (other) QVQLVQSGGGVVQPGGSLRLSCAASGFTFSSYVIHWVRQAPGKGLEWVAAISHDGSNKYYADSVKGRFTISRDNSKNTLYLQMSSLSAEDTAMYYCVKTSSDYYYAYWGQGTLVTVSSGGGGSGGGGSGGGGSQTVVTQEPSFSVSPGGTVTLTCGLSSGSVSTGNSPTWYQQTPGQAPRTLIYSTNTRSSGVPDRFSGSILGNKAALTITGAQADDESDYYCVLYMGSGYWVFGGGTKVTVLGAAATTTPAPRPPTPAPTIASQPLSLRPEACRPAAGGAVHTRGLDFACDIYIWAPLAGTCGVLLLSLVITLYCKRGRKKLLYIFKQPFMRPVQTTQEEDGCSCRFPEEEEGGCELRVKFSRSADAPAYQQGQNQLYNELNLGRREEYDVLDKRRGRDPEMGGKPRRKNPQEGLYNELQKDKMAEAYSEIGMKGERRRGKGHDGLYQGLSTATKDTYDALHMQALPPR | > 40 | –
CAR D0085 (Ef1a-BCMA sequence 16 CD8 BBz) (other) EVQLVQSGGGVVQPGGSLRLSCAASGFTFSSYGMHWVRQAPGKGLEWVAFIRYDGSNKYYADSVKGRFTISRDNSKNTLYLQMNSLRAEDTAVYYCARDLNDYGDPPPYWGQGTLVTVSSGGGGSGGGGSGGGGSDIQMTQSPSSLSASVGDRVTITCRASQSISSYLNWYQQKPGKAPKLLIYDASNLETGVSSRFSGSGSGTEFTLTISSLQPEDFATYFCQQTYSPPITFGQGTRLEIKRAAATTTPAPRPPTPAPTIASQPLSLRPEACRPAAGGAVHTRGLDFACDIYIWAPLAGTCGVLLLSLVITLYCKRGRKKLLYIFKQPFMRPVQTTQEEDGCSCRFPEEEEGGCELRVKFSRSADAPAYQQGQNQLYNELNLGRREEYDVLDKRRGRDPEMGGKPRRKNPQEGLYNELQKDKMAEAYSEIGMKGERRRGKGHDGLYQGLSTATKDTYDALHMQALPPR | > 40 | –
BCMA CAR construct with ScFv sequence 2 (MTB-2) (other, not shown: large carriers) EVQLVQSGGGLVQPGGSLRLSCAASGFTFSSYWMSWVRQAPGKGLEWVSGINGSGDRTYYADSVKGRFTISRDNSKNTLYLQMNSLRAEDTAVYYCANYNYDDNSGYGLGQGTLVTVSSGGGGSGGGGSGGGGSQSVLTQPPSVSVAPGKTARITCGGNNIGSKSVHWYQQKPGQAPVLVIYDDSDRPSGIPERFSGSNSGNTATLTISRVEAGDEADYYCQVWDSSSDHWVFGGGTKVTVLG | ≤ 40 | –
BCMA CAR construct with ScFv sequence 50 (MTB-50) (other, not shown: large carriers) EVQLVQSGGGVVRPGGSLRLSCAASGFTFSTYEMNWVRQAPGKGLEWLAYIGGSGSPIYYADSVRGRFTISRDNTKNSLFLQMSSLRAEDTAVYYCVEGWFDKWGLGTLVTVSSGGGGSGGGGSGGGGSDIQLTQSPSTLSASVGDRVTITCRASQSISSYLNWYQQKPGKAPKLLIYDASNLETGVPSRFSGSGSGTDFTLTISSLQPEDFATYYCQQSYSTPYTFGQGTKLEIKR | > 40 | –
CAR D0087 (Ef1a-BCMA sequence 40 CD8 BBz) (other) EVQLVQSGGGVVQPGGSLRLSCAASGFTFSSYGMHWVRQAPGKGLEWVAFIRYDGSNKYYADSVKGRFTISRDNSKNTLYLQMNSLRAEDTAVYYCAKEPPEYYYDSSGYSWGQGTLVTVSSGGGGSGGGGSGGGGSDIQLTQSPSSLSASVGDRVTITCQASQDIDTYLNWYQQKPGKAPKLLIYAASSLQSGVSSRFSGSGSGTEFTLTISSLQPEDFATYFCQQTYSPPITFGQGTRLEIKRAAATTTPAPRPPTPAPTIASQPLSLRPEACRPAAGGAVHTRGLDFACDIYIWAPLAGTCGVLLLSLVITLYCKRGRKKLLYIFKQPFMRPVQTTQEEDGCSCRFPEEEEGGCELRVKFSRSADAPAYQQGQNQLYNELNLGRREEYDVLDKRRGRDPEMGGKPRRKNPQEGLYNELQKDKMAEAYSEIGMKGERRRGKGHDGLYQGLSTATKDTYDALHMQALPPR | > 40 | –
